The target of the assay is T1, Erbin PDZ (UniProt Q96RT1 1321-1410, limits assumed).
T1 construct: domain: PDZ; Isolated PDZ domain without FN3; Expressed in E. coli from a pHFT2 derivative; also called wild-type PDZ domain; parent PDZ
The assay can be described thus: SPR (BIAcore 2000); PDZ immobilised on Ni-NTA chip, SUMO-peptide fusion as analyte. The protocol:
Affinity Measurements. SPR measurements were performed in 20 mM HEPES/NaOH buffer (pH 7.4), 150 mM NaCl, and 0.005% Tween 20 at 25° C. on a BIAcore 2000 instrument. The affinity clamp or the linker mutant was immobilized on a Ni-NTA chip to the level of approximate 300 RU, and different concentrations of SUMO-peptide fusion protein were injected. The kinetic data were analyzed using the one-to-one binding model in BIAEvaluation (BIAcore).
On the technique in general: SPR reads the build-up and loss of mass on a sensor chip optically.

T1 sequence (Q96RT1 1321-1410 limits assumed): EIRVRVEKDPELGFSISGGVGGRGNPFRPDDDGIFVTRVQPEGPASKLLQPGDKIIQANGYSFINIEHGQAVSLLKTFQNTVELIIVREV

B1: SUMO-ARVCF peptide fusion protein (peptide)
chain: PQPVDSWV
notes: Analyte in SPR; also called wild-type ARVCF peptide; AVFCF peptide; not shown: yeast SUMO, fusion partner N-terminal to the peptide
The Kd is the concentration at which binding is half-saturated. As for B1, the Kd came to 2.2 µM.

B2: SUMO-δ-catenin peptide fusion protein (peptide)
peptide: {yeast SUMO}-PASPDSWV-OH
modifications: not fully specified
notes: The methods say that SUMO-peptide fusion proteins were injected in SPR; also called C-terminus of δ-catenin; not shown: The yeast SUMO fusion partner N-terminal to the peptide, and any junction or tag residues
With B2, the dissociation constant (Kd) was 6.3 µM. This Kd lies about 2.9-fold higher than the previous one.

The values above are taken from US20110045604A1 (UNIVERSITY OF CHICAGO, published 2011).
